The values that follow come from patent US20100048604A1, “Ligands for Aldoketoreductases” (priority 2004, published 2010).

Assay in all cases: Steady state kinetic parameters of fluorogenic substrates with purified AKR1C isozymes
Format in all cases: biochemical, human
What all share (settings): other: isozyme 1C2, potassium phosphate buffer pH 6, NADPH, fluorimetric

Substrate in data set [1]: CC(=O)c1cc(=O)oc2cc(N(C)C)ccc12
An excerpt: (§1) AKR1C2 and AKR1C3 Selective Probes: Probes (5a-5i) were examined as substrates for the four purified human HSD isozymes (AKR1C1-AKR1C4) under standard assay conditions [catalytic quantities of enzyme, an excess of cofactor (NADPH)]. The initial reaction rates were used to derive standard kinetic parameters (kcat and Km, Materials and Methods).
(§2) Substrate tolerance of AKR1Cs: Isozyme Activity with 5a-5i: Activity of the second generation of fluorogenic substrates with the AKR1C isozymes was determined as follows. To a STARNA semi-micro fluorimeter cell (with 4 polished windows) was added 100 μL of 1 M potassium phosphate buffer (pH 6), 840 μL doubly deionized water, and 20 μL of 12.5 mM NADPH. After mixing the aqueous components thoroughly, 20 μL of acetonitrile was added as a cosolvent and mixed well. 20 μL of 2.5 mM second generation fluorogenic ketone in acetonitrile (5a-5i) was then added and mixed. 4 μL of undiluted AKR1C (provided generously by the Penning lab at concentrations of 2.5 mg/mL) were then added to the cuvette for a total of 10 μg purified enzyme in the 1 mL assay volume. Fluorescence arising from the respective alcohol reduction product was then monitored over the course of 5-10 minutes.
(§3) Binding constant and catalytic rates (Km and kcat) of the second generation of fluorogenic substrates was determined as follows. To a STARNA semi-micro fluorometer cell (with 4 polished windows) was added 100 μL of 1 M potassium phosphate buffer (pH 6), 840 μL doubly deionized water, and 20 AL of 12.5 mM NADPH. After mixing the aqueous components thoroughly, 20 μL of acetonitrile was added as a cosolvent and mixed well. 20 μL of the second generation fluorogenic ketone (5a-5i) was then added and mixed to achieve assay concentrations of 5Km to Km/5. To initiate the reduction, 2 or 4 μL of diluted AKR1C (1:2 to 1:100, depending on the kinetics of a particular isozyme's reduction of a substrate) was then added to the cuvette. Fluorescence arising from the respective alcohol reduction product was then monitored over the course of 3 minutes (Excitation and emission band pass slits both at 4 nm, lamp 700 V, λexc 410 nm, λem 510). The rate of product formation, expressed in units of nanomoles per minute, were calculated according to previously published procedures (Wierzchowski, J.; Dafeldecker, W. P.; Holmquist, B.; Vallee, B. L. Anal. Biochem. 1989, 178, 57-62):
(§4) initial rate=[nst×(Ft−F0)/(Fst)]/t (1)
(§5) where Ft and F0 represent the fluorescence at times t and 0 minutes, nst is the nanomoles of product in a known concentration of product, and Fst is the fluorescence resulting from nst of product. Kinetic parameters were approximated by GraFit (Erithacus Software, Surrey, UK) nonlinear regression analysis program to fit the untransformed data to a hyperbolic function as originally described (Wierzchowski, J.; Dafeldecker, W. P.; Holmquist, B.; Vallee, B. L. Anal. Biochem. 1989, 178, 57-62). Reported enzymatic kinetic parameters are the average of three independent determinations from three different preparations of substrate and enzyme.

Substrate in data set [2]: CC(=O)c1cc(=O)oc2c3c4c(cc12)CCCN4CCC3
Excerpt: as §1, §2, §3, §4, §5

Substrate in data set [3]: CC(=O)c1cc(=O)oc2c3c(ccc12)NCCC3
Excerpt: as §1, §2, §3, §4, §5

Substrate in data set [4]: O=C(c1ccccc1)c1cc(=O)oc2c3c4c(cc12)CCCN4CCC3
Excerpt: as §1, §2, §3, §4, §5

Substrate in data set [5]: CC(=O)c1cc(=O)oc2cc3c(cc12)CCCN3
Excerpt: as §1, §2, §3, §4, §5

Substrate in data set [6]: O=C1CCc2c1c1cc3c4c(c1oc2=O)CCCN4CCC3
Excerpt: as §1, §2, §3, §4, §5

B1: AKR1C2 (Homo sapiens) (protein)
chain: MDSKYQCVKLNDGHFMPVLGFGTYAPAEVPKSKALEAVKLAIEAGFHHIDSAHVYNNEEQVGLAIRSKIADGSVKREDIFYTSKLWSNSHRPELVRPALERSLKNLQLDYVDLYLIHFPVSVKPGEEVIPKDENGKILFDTVDLCATWEAMEKCKDAGLAKSIGVSNFNHRLLEMILNKPGLKYKPVCNQVECHPYFNQRKLLDFCKSKDIVLVAYSALGSHREEPWVDPNSPVLLEDPVLCALAKKHKRTPALIALRYQLQRGVVVLAKSYNEQRIRQNVQVFEFQLTSEEMKAIDGLNRNVRYLTLDIFAGPPNYPFSDEY
notes: gift of the Penning lab (University of Pennsylvania School of Medicine)
As usually defined, the Km is the concentration of substrate that gives half-maximal velocity. Regarding B1, the Km was 7.2 µM in data set [1]; 7.3 µM in data set [2]; 4.8 µM in data set [3]; 3 µM in data set [4]; 43.3 ± 4.4 4.3 ± 0.2 μM in data set [5]; 4.5 µM in data set [6]. Besides, the kcat in data set [6] is on record as 1.6 0.40 7.2 no activity. Further, the kcat/Km in data set [6] is listed as 0.39 0.08 56 min^−1 μM^−1.
